Data taken from publication PMC6923396.

Columns and labels:
[1] = target: p62-UBA K420Q (for NMR) (mouse) (UniProt Q64337); assay: NMR dilution series (1H-15N HSQC peak volumes of monomer and dimer); 15N-labeled p62-UBA diluted from 500 to 20 µM; 298 K, pH 6.0, 20 mM sodium acetate, 100 mM NaCl; dimer to monomers
[2] = target: p62-UBA K435Q (for NMR) (mouse) (UniProt Q64337); assay: as above

Which Kd [1] does the source give for “p62-UBA K420Q (for NMR) (from UniProt Q64337-1 391-436) (domain or fragment)” here?
Its Kd is 41.2 µM.

“p62-UBA K435Q (for NMR) (from UniProt Q64337-1 391-437) (domain or fragment)” was tested. Which Kd [2] did it give?
The Kd was 15.5 µM.
